According to paper PMC10418727, “Structural and Biochemical Insights into Bis(2-hydroxyethyl) Terephthalate Degrading Carboxylesterase Isolated from Psychrotrophic Bacterium Exiguobacterium antarcticum” (International Journal of Molecular Sciences, 2023):

Substrate: CC(=O)Oc1ccc([N+](=O)[O-])cc1
Test: purified protein
Format: biochemical, Exiguobacterium antarcticum
Settings: optimal conditions (optimal pH 7.0), free enzyme

B1: EaEst2 (Exiguobacterium antarcticum) (protein)
chain: MKITLPKPFFFEGGNRAVLLLHGFTGSSADVRMLGRYLQKHGYTSLAPQYKGHAAPPEELTKTGPADWWQDVLDGYEELKAKGYDEIAVCGLSLGGVMSLRLSMHRPVKAVIPMCAPAYIKSEDVMYAGVTEYAREFKKREGKSVDEIEQEMAVFEPMPTLKDLQALLKETRDSLEDVYAPTLVVQARNDHMINTDSANIIHDGVSALQKELIWYENSGHVITLDKEKETLHQDIHEFLDGLNWSH
notes: full-length gene in pET-28a (NheI/XhoI), N-terminal 6xHis tag, E. coli BL21(DE3); monomer; catalytic triad Ser93, Asp190, His220; motif GLSLG 91-95
- Km: 0.59 mM
